Test system: Escherichia coli TOP10
Assay: shrunken log2 fold change of peptide-encoding DNA abundance (4.5 h post-induction vs induction); higher = less antimicrobial activity (less host growth inhibition)
Conditions: time post-induction: 4.5 h; library: site-saturation at positions 5, 18, 19, 20
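Note: peptides expressed intracellularly from a pBAD plasmid library in pooled LB shake-flask culture, induced with 0.3% L-arabinose, DNA abundance read by NGS, three biological replicates, DESeq2 with apeglm shrinkage.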

Row | Sequence | shrunken log2 fold change
1 | RRIRPRPPRLPRPRPRPCGKPRP | 0.0102
2 | RRIRPRPPRLPRPRPRPCHCPRP | 0.153
3 | RRIRPRPPRLPRPRPRPCHMPRP | -0.0442
4 | RRIRPRPPRLPRPRPRPCHSPRP | -0.871
5 | RRIRPRPPRLPRPRPRPCKNPRP | -0.328
6 | RRIRPRPPRLPRPRPRPCKRPRP | -0.0941
7 | RRIRPRPPRLPRPRPRPCLQPRP | -0.631
8 | RRIRPRPPRLPRPRPRPCNQPRP | -0.0514
9 | RRIRPRPPRLPRPRPRPCPHPRP | -0.81
10 | RRIRPRPPRLPRPRPRPCPNPRP | -0.0908
11 | RRIRPRPPRLPRPRPRPCPSPRP | 0.0668
12 | RRIRPRPPRLPRPRPRPCPTPRP | 0.0557
13 | RRIRPRPPRLPRPRPRPCQRPRP | -0.144
14 | RRIRPRPPRLPRPRPRPCRKPRP | -0.134
15 | RRIRPRPPRLPRPRPRPCRLPRP | -0.29
16 | RRIRPRPPRLPRPRPRPCSNPRP | 0.137
17 | RRIRPRPPRLPRPRPRPCTAPRP | -0.109
18 | RRIRPRPPRLPRPRPRPCWCPRP | -0.0719
19 | RRIRPRPPRLPRPRPRPCWSPRP | 0.0606
20 | RRIRPRPPRLPRPRPRPCYDPRP | -0.165
21 | RRIRPRPPRLPRPRPRPDATPRP | 0.625
22 | RRIRPRPPRLPRPRPRPDCAPRP | 0.354

Row | Sequence | shrunken log2 fold change
23 | RRIRPRPPRLPRPRPRPDEFPRP | -0.203
24 | RRIRPRPPRLPRPRPRPDFAPRP | 0.0996
25 | RRIRPRPPRLPRPRPRPDFGPRP | -0.19
26 | RRIRPRPPRLPRPRPRPDHMPRP | -0.33
27 | RRIRPRPPRLPRPRPRPDIVPRP | -0.0822
28 | RRIRPRPPRLPRPRPRPDIWPRP | 0.144
29 | RRIRPRPPRLPRPRPRPDKDPRP | -0.173
30 | RRIRPRPPRLPRPRPRPDMHPRP | -0.042
31 | RRIRPRPPRLPRPRPRPDMNPRP | -0.268
32 | RRIRPRPPRLPRPRPRPDPHPRP | 0.0782
33 | RRIRPRPPRLPRPRPRPDPRPRP | 0.649
34 | RRIRPRPPRLPRPRPRPDPWPRP | -0.0279
35 | RRIRPRPPRLPRPRPRPDRDPRP | -0.0875
36 | RRIRPRPPRLPRPRPRPDTWPRP | 0.0185
37 | RRIRPRPPRLPRPRPRPDVDPRP | 0.108
38 | RRIRPRPPRLPRPRPRPDVPPRP | -0.0575
39 | RRIRPRPPRLPRPRPRPDVRPRP | 1.79
40 | RRIRPRPPRLPRPRPRPDWAPRP | 0.0079
41 | RRIRPRPPRLPRPRPRPECCPRP | 0.526
42 | RRIRPRPPRLPRPRPRPECDPRP | 0.392
43 | RRIRPRPPRLPRPRPRPECTPRP | 0.0119
44 | RRIRPRPPRLPRPRPRPEFGPRP | 0.327

Row | Sequence | shrunken log2 fold change
45 | RRIRPRPPRLPRPRPRPEHNPRP | -0.169
46 | RRIRPRPPRLPRPRPRPEIEPRP | 0.0922
47 | RRIRPRPPRLPRPRPRPEITPRP | 0.175
48 | RRIRPRPPRLPRPRPRPEKCPRP | 0.156
49 | RRIRPRPPRLPRPRPRPEKNPRP | 0.101
50 | RRIRPRPPRLPRPRPRPELAPRP | 0.643
51 | RRIRPRPPRLPRPRPRPEMDPRP | 0.116
52 | RRIRPRPPRLPRPRPRPENHPRP | -0.0822
53 | RRIRPRPPRLPRPRPRPEPAPRP | 0.572
54 | RRIRPRPPRLPRPRPRPEPMPRP | 0.542
55 | RRIRPRPPRLPRPRPRPERNPRP | -0.307
56 | RRIRPRPPRLPRPRPRPESDPRP | 0.235
57 | RRIRPRPPRLPRPRPRPESSPRP | 1.89
58 | RRIRPRPPRLPRPRPRPETIPRP | -0.157
59 | RRIRPRPPRLPRPRPRPETKPRP | 0.00908
60 | RRIRPRPPRLPRPRPRPETPPRP | 0.152
61 | RRIRPRPPRLPRPRPRPETSPRP | 0.328
62 | RRIRPRPPRLPRPRPRPEWHPRP | 1.23
63 | RRIRPRPPRLPRPRPRPEWKPRP | -0.00168
64 | RRIRPRPPRLPRPRPRPEYRPRP | 0.0278
65 | RRIRPRPPRLPRPRPRPFAAPRP | 0.227
66 | RRIRPRPPRLPRPRPRPFAQPRP | -0.0885

Row | Sequence | shrunken log2 fold change
67 | RRIRPRPPRLPRPRPRPFCMPRP | -0.047
68 | RRIRPRPPRLPRPRPRPFCWPRP | 0.447
69 | RRIRPRPPRLPRPRPRPFDHPRP | -0.105
70 | RRIRPRPPRLPRPRPRPFFKPRP | -0.0682
71 | RRIRPRPPRLPRPRPRPFHAPRP | -0.0472
72 | RRIRPRPPRLPRPRPRPFIEPRP | -0.245
73 | RRIRPRPPRLPRPRPRPFIQPRP | -0.671
74 | RRIRPRPPRLPRPRPRPFKNPRP | -0.615
75 | RRIRPRPPRLPRPRPRPFKVPRP | -0.0681
76 | RRIRPRPPRLPRPRPRPFMEPRP | -0.554
77 | RRIRPRPPRLPRPRPRPFNSPRP | -0.764
78 | RRIRPRPPRLPRPRPRPFPRPRP | 0.0474
79 | RRIRPRPPRLPRPRPRPFRAPRP | 0.116
80 | RRIRPRPPRLPRPRPRPFRCPRP | 0.12
81 | RRIRPRPPRLPRPRPRPFRGPRP | 0.0377
82 | RRIRPRPPRLPRPRPRPFRLPRP | -0.465
83 | RRIRPRPPRLPRPRPRPFRQPRP | -0.00634
84 | RRIRPRPPRLPRPRPRPFRWPRP | -0.0528
85 | RRIRPRPPRLPRPRPRPFSLPRP | -0.365
86 | RRIRPRPPRLPRPRPRPFSTPRP | -0.317
87 | RRIRPRPPRLPRPRPRPFTMPRP | 1.43
88 | RRIRPRPPRLPRPRPRPFVCPRP | -0.395

Row | Sequence | shrunken log2 fold change
89 | RRIRPRPPRLPRPRPRPFVDPRP | -0.319
90 | RRIRPRPPRLPRPRPRPFWDPRP | -0.465
91 | RRIRPRPPRLPRPRPRPFYFPRP | -0.387
92 | RRIRPRPPRLPRPRPRPFYIPRP | -0.312
93 | RRIRPRPPRLPRPRPRPFYNPRP | -0.7
94 | RRIRPRPPRLPRPRPRPGCNPRP | -0.124
95 | RRIRPRPPRLPRPRPRPGDIPRP | -0.027
96 | RRIRPRPPRLPRPRPRPGDNPRP | -0.00764
97 | RRIRPRPPRLPRPRPRPGEIPRP | 0.21
98 | RRIRPRPPRLPRPRPRPGFEPRP | 0.225
99 | RRIRPRPPRLPRPRPRPGFGPRP | 0.752
100 | RRIRPRPPRLPRPRPRPGFRPRP | 0.138
101 | RRIRPRPPRLPRPRPRPGHRPRP | 0.0675
102 | RRIRPRPPRLPRPRPRPGHWPRP | 0.123
103 | RRIRPRPPRLPRPRPRPGIRPRP | 0.105
104 | RRIRPRPPRLPRPRPRPGKNPRP | -0.00164
105 | RRIRPRPPRLPRPRPRPGKSPRP | -0.208
106 | RRIRPRPPRLPRPRPRPGLFPRP | 0.162
107 | RRIRPRPPRLPRPRPRPGLKPRP | 0.211
108 | RRIRPRPPRLPRPRPRPGNAPRP | 0.34
109 | RRIRPRPPRLPRPRPRPGNTPRP | -0.241
